The target in this assay is mB7H3 (endogenous mouse B7H3 on B16 and B78 cells) (mouse) (UniProt Q8VE98). The assay can be described thus: flow cytometry on B16 cells (no GD2, mouse B7H3), 1 ug antibody per million cells, GAH PE; anti-GD2 antibody as control.
Chain of mB7H3 (endogenous mouse B7H3 on B16 and B78 cells) (mouse) (Q8VE98 29-316 limits assumed): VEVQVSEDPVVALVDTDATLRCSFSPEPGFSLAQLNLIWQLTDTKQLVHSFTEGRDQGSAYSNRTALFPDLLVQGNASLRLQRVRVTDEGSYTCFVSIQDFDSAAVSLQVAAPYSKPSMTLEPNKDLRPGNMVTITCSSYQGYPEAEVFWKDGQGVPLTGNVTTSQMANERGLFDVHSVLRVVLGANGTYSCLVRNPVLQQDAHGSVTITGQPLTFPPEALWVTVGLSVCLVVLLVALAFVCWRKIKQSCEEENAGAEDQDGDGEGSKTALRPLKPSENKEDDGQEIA

Invenra Dinutuximab (antibody) registered an MFI of 1 MFI.

These data come from patent US20230018670A1.
